# Test results as given in patent US20200283478A1 (Genentech, published 2020).
# Bridge positions count the residues as written; N and C are the ends. Square brackets hold non-standard residues; d marks the D form. Primed or numbered codes have the meaning given here. Ends that are not written are not given here. * marks the point of attachment. Fmoc = O=C(OCC1c2ccccc2-c2ccccc21)*; hArg = N=C(N)NCCCC[C@H](N)C(=O)O; Hyp′ = 3-hydroxyproline; Ahp = NCCCCCCC(=O)O; Ahx = NCCCCCC(=O)O
# B1: Compound 116 (Ac-CRLPWNLQRI-(Ahx)-C-NH2) (peptide)
# peptide: Ac-CRLPWNLQRI[Ahx]C-NH2
# modifications: disulfide 1-12
# SMILES: CC[C@H](C)[C@@H]1NC(=O)[C@H](CCCNC(=N)N)NC(=O)[C@H](CCC(N)=O)NC(=O)[C@H](CC(C)C)NC(=O)[C@H](CC(N)=O)NC(=O)[C@H](Cc2c[nH]c3ccccc23)NC(=O)[C@@H]2CCCN2C(=O)[C@H](CC(C)C)NC(=O)[C@H](CCCNC(=N)N)NC(=O)[C@@H](NC(C)=O)CSSC[C@@H](C(N)=O)NC(=O)CCCCCNC1=O
# B2: Compound 90 (Ac-WCLWNLKRIGSQCWF) (peptide)
# peptide: Ac-WCLWNLKRIGSQCWF
# modifications: disulfide 2-13
# B3: Compound 63 (Ac-MCLWNLKRIGSQCEY-NH2) (peptide)
# peptide: Ac-MCLWNLKRIGSQCEY-NH2
# modifications: disulfide 2-13
# SMILES: CC[C@H](C)[C@@H]1NC(=O)[C@H](CCCNC(=N)N)NC(=O)[C@H](CCCCN)NC(=O)[C@H](CC(C)C)NC(=O)[C@H](CC(N)=O)NC(=O)[C@H](Cc2c[nH]c3ccccc23)NC(=O)[C@H](CC(C)C)NC(=O)[C@@H](NC(=O)[C@H](CCSC)NC(C)=O)CSSC[C@@H](C(=O)N[C@@H](CCC(=O)O)C(=O)N[C@@H](Cc2ccc(O)cc2)C(N)=O)NC(=O)[C@H](CCC(N)=O)NC(=O)[C@H](CO)NC(=O)CNC1=O
# B4: Compound 65 (Ac-WCLWNLKRIGSQCEY-NH2) (peptide)
# peptide: Ac-WCLWNLKRIGSQCEY-NH2
# modifications: disulfide 2-13
# SMILES: CC[C@H](C)[C@@H]1NC(=O)[C@H](CCCNC(=N)N)NC(=O)[C@H](CCCCN)NC(=O)[C@H](CC(C)C)NC(=O)[C@H](CC(N)=O)NC(=O)[C@H](Cc2c[nH]c3ccccc23)NC(=O)[C@H](CC(C)C)NC(=O)[C@@H](NC(=O)[C@H](Cc2c[nH]c3ccccc23)NC(C)=O)CSSC[C@@H](C(=O)N[C@@H](CCC(=O)O)C(=O)N[C@@H](Cc2ccc(O)cc2)C(N)=O)NC(=O)[C@H](CCC(N)=O)NC(=O)[C@H](CO)NC(=O)CNC1=O
# B5: Compound 95 (Ac-FCLWNLKRIGSQCEY-NH2) (peptide)
# peptide: Ac-FCLWNLKRIGSQCEY-NH2
# modifications: disulfide 2-13
# SMILES: CC[C@H](C)[C@@H]1NC(=O)[C@H](CCCNC(=N)N)NC(=O)[C@H](CCCCN)NC(=O)[C@H](CC(C)C)NC(=O)[C@H](CC(N)=O)NC(=O)[C@H](Cc2c[nH]c3ccccc23)NC(=O)[C@H](CC(C)C)NC(=O)[C@@H](NC(=O)[C@H](Cc2ccccc2)NC(C)=O)CSSC[C@@H](C(=O)N[C@@H](CCC(=O)O)C(=O)N[C@@H](Cc2ccc(O)cc2)C(N)=O)NC(=O)[C@H](CCC(N)=O)NC(=O)[C@H](CO)NC(=O)CNC1=O
# B6: Compound 117 (Ac-CRLPWNLQ(homoR)IGLPC-NH2) (peptide)
# peptide: Ac-CRLPWNLQ[hArg]IGLPC-NH2
# modifications: disulfide 1-14
# SMILES: CC[C@H](C)[C@@H]1NC(=O)[C@H](CCCCNC(=N)N)NC(=O)[C@H](CCC(N)=O)NC(=O)[C@H](CC(C)C)NC(=O)[C@H](CC(N)=O)NC(=O)[C@H](Cc2c[nH]c3ccccc23)NC(=O)[C@@H]2CCCN2C(=O)[C@H](CC(C)C)NC(=O)[C@H](CCCNC(=N)N)NC(=O)[C@@H](NC(C)=O)CSSC[C@@H](C(N)=O)NC(=O)[C@@H]2CCCN2C(=O)[C@H](CC(C)C)NC(=O)CNC1=O
# B7: Compound 121 (Ac-CRLPWNLQRI-(Ahp)-C-NH2) (peptide)
# peptide: Ac-CRLPWNLQRI[Ahp]C-NH2
# modifications: disulfide 1-12
# SMILES: CC[C@H](C)[C@@H]1NC(=O)[C@H](CCCNC(=N)N)NC(=O)[C@H](CCC(N)=O)NC(=O)[C@H](CC(C)C)NC(=O)[C@H](CC(N)=O)NC(=O)[C@H](Cc2c[nH]c3ccccc23)NC(=O)[C@@H]2CCCN2C(=O)[C@H](CC(C)C)NC(=O)[C@H](CCCNC(=N)N)NC(=O)[C@@H](NC(C)=O)CSSC[C@@H](C(N)=O)NC(=O)CCCCCCNC1=O
# B8: Compound 40 (Ac-GSG-CWNLKRIGSQGCW-NH2) (peptide)
# peptide: Ac-GSGCWNLKRIGSQGCW-NH2
# modifications: disulfide 4-15
# SMILES: CC[C@H](C)[C@@H]1NC(=O)[C@H](CCCNC(=N)N)NC(=O)[C@H](CCCCN)NC(=O)[C@H](CC(C)C)NC(=O)[C@H](CC(N)=O)NC(=O)[C@H](Cc2c[nH]c3ccccc23)NC(=O)[C@@H](NC(=O)CNC(=O)[C@H](CO)NC(=O)CNC(C)=O)CSSC[C@@H](C(=O)N[C@@H](Cc2c[nH]c3ccccc23)C(N)=O)NC(=O)CNC(=O)[C@H](CCC(N)=O)NC(=O)[C@H](CO)NC(=O)CNC1=O
# B9: Compound 37 (Ac-SG-CRL(Hyp)WNLQRIGLPC-NH2) (peptide)
# peptide: Ac-SGCRL[Hyp′]WNLQRIGLPC-NH2
# modifications: disulfide 3-16
# B10: Compound 89 (WCLWNLKRIGSQCWF-NH2) (peptide)
# peptide: WCLWNLKRIGSQCWF-NH2
# modifications: disulfide 2-13; N-terminus assumed
# SMILES: CC[C@H](C)[C@@H]1NC(=O)[C@H](CCCNC(=N)N)NC(=O)[C@H](CCCCN)NC(=O)[C@H](CC(C)C)NC(=O)[C@H](CC(N)=O)NC(=O)[C@H](Cc2c[nH]c3ccccc23)NC(=O)[C@H](CC(C)C)NC(=O)[C@@H](NC(=O)[C@@H](N)Cc2c[nH]c3ccccc23)CSSC[C@@H](C(=O)N[C@@H](Cc2c[nH]c3ccccc23)C(=O)N[C@@H](Cc2ccccc2)C(N)=O)NC(=O)[C@H](CCC(N)=O)NC(=O)[C@H](CO)NC(=O)CNC1=O
# B11: Compound 87 (Ac-GCLWNLKRIGSQCWF-NH2) (peptide)
# peptide: Ac-GCLWNLKRIGSQCWF-NH2
# modifications: disulfide 2-13
# SMILES: CC[C@H](C)[C@@H]1NC(=O)[C@H](CCCNC(=N)N)NC(=O)[C@H](CCCCN)NC(=O)[C@H](CC(C)C)NC(=O)[C@H](CC(N)=O)NC(=O)[C@H](Cc2c[nH]c3ccccc23)NC(=O)[C@H](CC(C)C)NC(=O)[C@@H](NC(=O)CNC(C)=O)CSSC[C@@H](C(=O)N[C@@H](Cc2c[nH]c3ccccc23)C(=O)N[C@@H](Cc2ccccc2)C(N)=O)NC(=O)[C@H](CCC(N)=O)NC(=O)[C@H](CO)NC(=O)CNC1=O
# B12: Compound 88 (Ac-FCLWNLARIGSQCWF-NH2) (peptide)
# peptide: Ac-FCLWNLARIGSQCWF-NH2
# modifications: disulfide 2-13
# SMILES: CC[C@H](C)[C@@H]1NC(=O)[C@H](CCCNC(=N)N)NC(=O)[C@H](C)NC(=O)[C@H](CC(C)C)NC(=O)[C@H](CC(N)=O)NC(=O)[C@H](Cc2c[nH]c3ccccc23)NC(=O)[C@H](CC(C)C)NC(=O)[C@@H](NC(=O)[C@H](Cc2ccccc2)NC(C)=O)CSSC[C@@H](C(=O)N[C@@H](Cc2c[nH]c3ccccc23)C(=O)N[C@@H](Cc2ccccc2)C(N)=O)NC(=O)[C@H](CCC(N)=O)NC(=O)[C@H](CO)NC(=O)CNC1=O
# B13: SEQ ID NO 378 (peptide)
# peptide: SGVCSDHYIGGKEVRC
# B14: SEQ ID NO 366 (peptide)
# peptide: SGPRTYLRGLVD
# B15: Compound 66 (WCLWNLKRIGSQCWF) (peptide)
# peptide: H-WCLWNLKRIGSQCWF-OH
# modifications: disulfide 2-13
# SMILES: CC[C@H](C)[C@@H]1NC(=O)[C@H](CCCNC(=N)N)NC(=O)[C@H](CCCCN)NC(=O)[C@H](CC(C)C)NC(=O)[C@H](CC(N)=O)NC(=O)[C@H](Cc2c[nH]c3ccccc23)NC(=O)[C@H](CC(C)C)NC(=O)[C@@H](NC(=O)[C@@H](N)Cc2c[nH]c3ccccc23)CSSC[C@@H](C(=O)N[C@@H](Cc2c[nH]c3ccccc23)C(=O)N[C@@H](Cc2ccccc2)C(=O)O)NC(=O)[C@H](CCC(N)=O)NC(=O)[C@H](CO)NC(=O)CNC1=O
# B16: Compound 98 (Fmoc-GSG-CWNLKRIGSQGC-NH2) (peptide)
# peptide: Fmoc-GSGCWNLKRIGSQGC-NH2
# modifications: disulfide 4-15
# SMILES: CC[C@H](C)[C@@H]1NC(=O)[C@H](CCCNC(=N)N)NC(=O)[C@H](CCCCN)NC(=O)[C@H](CC(C)C)NC(=O)[C@H](CC(N)=O)NC(=O)[C@H](Cc2c[nH]c3ccccc23)NC(=O)[C@@H](NC(=O)CNC(=O)[C@H](CO)NC(=O)CNC(=O)OCC2c3ccccc3-c3ccccc32)CSSC[C@@H](C(N)=O)NC(=O)CNC(=O)[C@H](CCC(N)=O)NC(=O)[C@H](CO)NC(=O)CNC1=O
# B17: Compound 39 (Ac-CWNLKRIGSQGCW-NH2) (peptide)
# peptide: Ac-CWNLKRIGSQGCW-NH2
# modifications: disulfide 1-12
# SMILES: CC[C@H](C)[C@@H]1NC(=O)[C@H](CCCNC(=N)N)NC(=O)[C@H](CCCCN)NC(=O)[C@H](CC(C)C)NC(=O)[C@H](CC(N)=O)NC(=O)[C@H](Cc2c[nH]c3ccccc23)NC(=O)[C@@H](NC(C)=O)CSSC[C@@H](C(=O)N[C@@H](Cc2c[nH]c3ccccc23)C(N)=O)NC(=O)CNC(=O)[C@H](CCC(N)=O)NC(=O)[C@H](CO)NC(=O)CNC1=O
# B18: SEQ ID NO 367 (peptide)
# peptide: SGNCWSSLRGICENLG
# Key:
# His-tagged PCSK9Δhelix = molecular target: T1, His-tagged PCSK9Δhelix (human, UniProt Q8NBP7 31-152; Q8NBP7 168-692); assay: TR-FRET competition (PCSK9Δhelix/Ab20 assay); competitor Ab20
# T1 construct: Human PCSK9 M1-Q692 with an engineered TEV site, cut by TEV protease; new N-terminus of the catalytic domain is S-A168; also called His-PCSK9Δhelix; not shown: His tag
# T1 sequence (Q8NBP7 31-152, stated change not applied, chain 1 of 2): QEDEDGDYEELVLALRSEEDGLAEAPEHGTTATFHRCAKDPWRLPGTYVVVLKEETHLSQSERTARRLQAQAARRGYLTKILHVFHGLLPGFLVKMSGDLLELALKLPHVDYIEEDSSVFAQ
# T1 sequence (Q8NBP7 other isoform, or with tags, fused parts or gaps mutant, chain 2 of 2): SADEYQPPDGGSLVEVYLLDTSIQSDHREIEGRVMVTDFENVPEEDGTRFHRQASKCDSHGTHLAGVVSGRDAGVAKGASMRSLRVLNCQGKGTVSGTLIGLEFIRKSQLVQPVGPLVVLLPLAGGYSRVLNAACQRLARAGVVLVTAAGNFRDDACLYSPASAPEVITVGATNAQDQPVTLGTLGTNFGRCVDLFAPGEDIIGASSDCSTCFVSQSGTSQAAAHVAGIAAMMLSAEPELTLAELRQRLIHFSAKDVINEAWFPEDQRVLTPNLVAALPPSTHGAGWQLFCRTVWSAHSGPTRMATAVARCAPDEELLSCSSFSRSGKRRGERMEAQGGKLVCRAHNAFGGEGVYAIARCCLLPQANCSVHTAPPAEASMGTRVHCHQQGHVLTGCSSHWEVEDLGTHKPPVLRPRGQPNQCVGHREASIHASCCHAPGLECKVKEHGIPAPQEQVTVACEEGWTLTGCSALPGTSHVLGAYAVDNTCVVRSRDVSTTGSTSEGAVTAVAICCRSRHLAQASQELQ
# [1] = molecular target: T2, His-tagged, full-length PCSK9 (human, UniProt Q8NBP7 31-692); assay: TR-FRET competition (PCSK9/EGF(A) assay); competitor EGF(A)-Fc;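 also: proximity signal from anti-His APC on PCSK9 paired with anti-Fc europium on the Fc ligand, read as normalized TR-FRET ratio across compound dilutions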
# T2 construct: secreted PCSK9 is autocatalytically cleaved into prodomain and catalytic domain + CRD (from S153), which stay associated; also called His-PCSK9; proprotein convertase subtilisin/kexin type 9; not shown: His tag
# T2 sequence (Q8NBP7 31-692 limits assumed): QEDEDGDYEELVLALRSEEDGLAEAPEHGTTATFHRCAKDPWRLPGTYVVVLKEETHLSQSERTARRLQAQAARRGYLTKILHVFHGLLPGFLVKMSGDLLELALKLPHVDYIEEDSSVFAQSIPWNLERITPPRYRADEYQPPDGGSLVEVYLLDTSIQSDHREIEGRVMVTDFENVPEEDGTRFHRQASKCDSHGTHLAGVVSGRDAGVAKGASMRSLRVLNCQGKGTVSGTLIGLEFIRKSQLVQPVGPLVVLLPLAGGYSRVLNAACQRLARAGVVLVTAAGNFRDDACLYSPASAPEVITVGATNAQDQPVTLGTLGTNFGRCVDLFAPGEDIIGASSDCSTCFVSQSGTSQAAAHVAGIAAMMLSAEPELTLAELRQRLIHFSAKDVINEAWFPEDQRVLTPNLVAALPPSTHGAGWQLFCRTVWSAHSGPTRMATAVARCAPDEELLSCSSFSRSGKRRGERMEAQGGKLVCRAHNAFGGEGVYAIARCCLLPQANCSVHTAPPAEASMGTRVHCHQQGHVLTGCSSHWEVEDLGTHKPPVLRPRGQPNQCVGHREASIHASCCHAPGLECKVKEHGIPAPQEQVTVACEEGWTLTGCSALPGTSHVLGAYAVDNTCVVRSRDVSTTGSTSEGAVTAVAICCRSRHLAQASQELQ
# [2] = molecular target: T3, proprotein convertase subtilisin/kexin type 9 (PCSK9) (human, UniProt Q8NBP7 31-692); assay: phage spot ELISA
# T3 construct: His-tagged full-length PCSK9 in TR-FRET and SPR, biotinylated in phage ELISA; secreted protein is autoprocessed (prodomain plus catalytic/CRD chain starting at S153); also called rec.PCSK9; His-PCSK9
# T3 sequence (Q8NBP7 other isoform, or with tags, fused parts or gaps limits assumed): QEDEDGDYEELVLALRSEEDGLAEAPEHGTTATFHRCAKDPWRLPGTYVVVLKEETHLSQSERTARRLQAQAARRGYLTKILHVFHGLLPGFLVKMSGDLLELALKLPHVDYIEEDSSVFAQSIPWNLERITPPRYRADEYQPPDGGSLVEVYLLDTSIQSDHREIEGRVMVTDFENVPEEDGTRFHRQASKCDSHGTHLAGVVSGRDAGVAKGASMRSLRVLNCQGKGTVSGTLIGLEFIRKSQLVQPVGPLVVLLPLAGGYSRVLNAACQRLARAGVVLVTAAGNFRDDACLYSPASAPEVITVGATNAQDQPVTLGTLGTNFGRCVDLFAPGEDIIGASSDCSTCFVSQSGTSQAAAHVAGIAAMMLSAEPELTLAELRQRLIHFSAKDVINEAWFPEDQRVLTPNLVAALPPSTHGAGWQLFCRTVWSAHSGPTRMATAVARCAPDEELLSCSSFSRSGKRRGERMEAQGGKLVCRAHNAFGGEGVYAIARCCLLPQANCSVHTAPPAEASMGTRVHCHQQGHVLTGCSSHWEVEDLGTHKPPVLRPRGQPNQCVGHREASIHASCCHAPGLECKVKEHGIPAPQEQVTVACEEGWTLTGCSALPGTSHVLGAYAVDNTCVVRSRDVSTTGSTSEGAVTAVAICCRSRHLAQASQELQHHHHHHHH
# PCSK9Δhelix = molecular target: T4, PCSK9Δhelix (human, Chemically biotinylated in the phage ELISAs; the site is not given.); assay: phage spot ELISA
# T4 construct: construct M1-Q692 with engineered TEV site, cleaved by TEV; also called His-PCSK9Δhelix; open groove PCSK9Δhelix
# T4 sequence (prodomain, as listed by the source mutant limits assumed, chain 1 of 2): as the sequence (Q8NBP7 31-152, stated change not applied, chain 1 of 2) above
# T4 sequence (chain, as listed by the source mutant limits assumed, chain 2 of 2): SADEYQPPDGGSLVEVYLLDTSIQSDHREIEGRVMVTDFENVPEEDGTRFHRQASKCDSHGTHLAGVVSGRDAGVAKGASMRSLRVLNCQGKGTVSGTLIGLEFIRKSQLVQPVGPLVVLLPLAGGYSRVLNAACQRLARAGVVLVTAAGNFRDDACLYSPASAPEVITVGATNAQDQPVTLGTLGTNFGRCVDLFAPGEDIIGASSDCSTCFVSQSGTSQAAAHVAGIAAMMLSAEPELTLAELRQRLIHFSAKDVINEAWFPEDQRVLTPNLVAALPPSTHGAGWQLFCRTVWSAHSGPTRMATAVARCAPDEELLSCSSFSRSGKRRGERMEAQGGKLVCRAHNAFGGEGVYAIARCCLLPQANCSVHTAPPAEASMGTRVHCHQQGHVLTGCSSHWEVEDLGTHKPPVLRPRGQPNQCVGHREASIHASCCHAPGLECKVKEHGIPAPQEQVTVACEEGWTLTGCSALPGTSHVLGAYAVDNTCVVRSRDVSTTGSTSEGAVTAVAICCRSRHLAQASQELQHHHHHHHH
Binder,IC50 (His-tagged PCSK9Δhelix),IC50 [1],ELISA [2],s/n [2],ELISA (PCSK9Δhelix),s/n (PCSK9Δhelix)
B1,31.6 µM,> 50 µM,–,–,–,–
B2,7.38 µM,29.2 µM,–,–,–,–
B3,6 µM,14.6 µM,–,–,–,–
B4,7.1 µM,> 50 µM,–,–,–,–
B5,12.7 µM,> 50 µM,–,–,–,–
B6,0.334 µM,> 50 µM,–,–,–,–
B7,40.3 µM,> 50 µM,–,–,–,–
B8,2.41 µM,5.96 µM,–,–,–,–
B9,11.1 µM,> 50 µM,–,–,–,–
B10,2.98 µM,6.9 µM,–,–,–,–
B11,9.53 µM,> 50 µM,–,–,–,–
B12,7.46 µM,17.9 µM,–,–,–,–
B13,–,–,1.12,6.19,–,–
B14,–,–,0.355,3.1,0.375,3.44
B15,12 µM,31.3 µM,–,–,–,–
B16,3.6 µM,37.6 µM,–,–,–,–
B17,37.5 µM,> 50 µM,–,–,–,–
B18,–,–,0.609,1.47,0.601,5.2
